Like-named read-outs stand apart in the source and are kept apart here.
What was measured:
[1] = biological target: P (Human respiratory syncytial virus) (UniProt P03421); conditions: cited from earlier work
[2] = biological target: P (Human respiratory syncytial virus) (UniProt P03421); test: ITC; conditions: cited from earlier work
[3] = biological target: RSV P D110A (untagged, from pP) (human respiratory syncytial virus, strain Long) (UniProt P12579)
[4] = biological target: RSV P D95A (untagged, from pP) (human respiratory syncytial virus, strain Long) (UniProt P12579)

Row | Substance | Kd [1] [nM] | Kd [2] [nM] | minigenome activity (firefly luciferase, pM/Luc) in BSRT7/5 cells [3] [% decrease] | minigenome activity (firefly luciferase, pM/Luc) in BSRT7/5 cells [4] [% decrease]
1 | M2-1 (from UniProt P04545) | 8.1 | 3000 |  | 
2 | RSV M2-1 expressed in BSRT7/5 cells, unphosphorylated form (from UniProt P04545 1-194) (natural protein) |  |  | 50 | 50
